Molecular target: Deinococcus radiodurans DNA polymerase III β subunit (β-clamp), short version of 362 amino acids (Deinococcus radiodurans strain R1)
Assay: SEC; Superdex 75 10/30, purified Drβ-clamp, size and tertiary structure analysis

stoichiometry N: 2
Substance: Deinococcus radiodurans DNA polymerase III β subunit (β-clamp), short version of 362 amino acids (natural protein)

Source: PMC4350885
